# From patent publication US20150139996A1
# What was measured:
# [1] = target: IgG1 heavy chain with CH3 construct 75 (L351D, Y349D, R355D) (human) [IgG part: P01857]; assay: SDS-PAGE of protein A-purified supernatant; construct expressed alone
# [2] = target: IgG1 heavy chain with CH3 construct 75 (L351D, Y349D, R355D) (human) [IgG part: P01857]; assay: native MS; combination 9 co-expressed (A: VH MF1337, B: VH MF1122)
# [3] = target: IgG1 heavy chain with CH3 construct 71 (L351D, Y349E) (human) [IgG part: P01857]; assay: SDS-PAGE of protein A-purified supernatant; construct expressed alone
# [4] = target: IgG1 heavy chain with CH3 construct 71 (L351D, Y349E) (human) [IgG part: P01857]; assay: native MS; combination 11 co-expressed (A: VH MF1337, B: VH MF1122)
# [5] = target: IgG1 heavy chain with CH3 construct 71 (L351D, Y349E) (human) [IgG part: P01857]; assay: native MS; combination 5 co-expressed (A: VH MF1337, B: VH MF1122)
# [6] = target: IgG1 heavy chain with CH3 construct 79 (T366R) (human) [IgG part: P01857]; assay: SDS-PAGE of protein A-purified supernatant; construct expressed alone
# [7] = target: IgG1 heavy chain with CH3 construct 80 (L351E) (human) [IgG part: P01857]; assay: native MS; combination 14 co-expressed (A: VH MF1337, B: VH MF1122)
# [8] = target: IgG1 heavy chain with CH3 construct 79 (T366R) (human) [IgG part: P01857]; assay: as above
# [9] = target: IgG1 heavy chain with CH3 construct 74 (L351D, Y349D) (human) [IgG part: P01857]; assay: SDS-PAGE of protein A-purified supernatant; construct expressed alone
# [10] = target: IgG1 heavy chain with CH3 construct 74 (L351D, Y349D) (human) [IgG part: P01857]; assay: native MS; combination 10 co-expressed (A: VH MF1337, B: VH MF1122)
# [11] = target: IgG1 heavy chain with CH3 construct 76 (L351K, L368K) (human) [IgG part: P01857]; assay: native MS; combination 15 co-expressed (A: VH MF1337, B: VH MF1122)
# [12] = target: IgG1 heavy chain with CH3 construct 76 (L351K, L368K) (human) [IgG part: P01857]; assay: SDS-PAGE of protein A-purified supernatant; construct expressed alone
# [13] = target: IgG1 heavy chain with CH3 construct 70 (L351E, Y349E) (human) [IgG part: P01857]; assay: native MS; combination 4 co-expressed (A: VH MF1337, B: VH MF1122)
# [14] = target: IgG1 heavy chain with CH3 construct 70 (L351E, Y349E) (human) [IgG part: P01857]; assay: SDS-PAGE of protein A-purified supernatant; construct expressed alone
# [15] = target: IgG1 heavy chain with CH3 construct 6 (T366W) (human) [IgG part: P01857]; assay: as above
# [16] = target: IgG1 heavy chain with CH3 construct 6 (T366W) (human) [IgG part: P01857]; assay: native MS; transfection P: vector IX alone (tetanus VH, construct 6)
# [17] = target: IgG1 heavy chain with CH3 construct 77 (L351R) (human) [IgG part: P01857]; assay: SDS-PAGE of protein A-purified supernatant; construct expressed alone
# [18] = target: IgG1 heavy chain with CH3 construct 77 (L351R) (human) [IgG part: P01857]; assay: native MS; combination 1 co-expressed (A: VH MF1337, B: VH MF1122)
# [19] = target: IgG1 heavy chain with CH3 construct 77 (L351R) (human) [IgG part: P01857]; assay: native MS; combination 16 co-expressed (A: VH MF1337, B: VH MF1122)
# [20] = target: IgG1 heavy chain with CH3 construct 78 (T366E) (human) [IgG part: P01857]; assay: SDS-PAGE of protein A-purified supernatant; construct expressed alone
# [21] = target: IgG1 heavy chain with CH3 construct 78 (T366E) (human) [IgG part: P01857]; assay: native MS; combination 1 co-expressed (A: VH MF1337, B: VH MF1122)
# [22] = target: IgG1 heavy chain with CH3 construct 7 (T366S, L368A, Y407V) (human) [IgG part: P01857]; assay: SDS-PAGE of protein A-purified supernatant; construct expressed alone
# [23] = target: IgG1 heavy chain with CH3 construct 7 (T366S, L368A, Y407V) (human) [IgG part: P01857]; assay: native MS; transfection Q: vector X alone (thyroglobulin VH, construct 7)
# [24] = target: IgG1 heavy chain with CH3 construct 2 (K392D, K409D) (human) [IgG part: P01857]; assay: SDS-PAGE of protein A-purified supernatant; construct expressed alone
# [25] = target: IgG1 heavy chain with CH3 construct 2 (K392D, K409D) (human) [IgG part: P01857]; assay: native MS; transfection C: vector V alone (fibrinogen VH, construct 2)
# [26] = target: IgG1 heavy chain with CH3 construct 2 (K392D, K409D) (human) [IgG part: P01857]; assay: native MS; transfection D: vector VI alone (tetanus VH, construct 2)
# [27] = target: IgG1 heavy chain with CH3 construct 3 (K392D, K409D, K439D) (human) [IgG part: P01857]; assay: native MS; transfection F: vector VIII alone (tetanus VH, construct 3)
# [28] = target: IgG1 heavy chain with CH3 construct 3 (K392D, K409D, K439D) (human) [IgG part: P01857]; assay: SDS-PAGE of protein A-purified supernatant; construct expressed alone
# [29] = target: IgG1 heavy chain with CH3 construct 3 (K392D, K409D, K439D) (human) [IgG part: P01857]; assay: native MS; transfection E: vector VII alone (fibrinogen VH, construct 3)
# [30] = target: IgG1 heavy chain with CH3 construct 80 (L351E) (human) [IgG part: P01857]; assay: SDS-PAGE of protein A-purified supernatant; construct expressed alone
# [31] = target: IgG1 heavy chain with CH3 construct 80 (L351E) (human) [IgG part: P01857]; assay: native MS; combination 13 co-expressed (A: VH MF1337, B: VH MF1122)
# [32] = target: IgG1 heavy chain with CH3 construct 73 (L351D, Y349E, L368E) (human) [IgG part: P01857]; assay: native MS; combination 6 co-expressed (A: VH MF1337, B: VH MF1122)
# [33] = target: IgG1 heavy chain with CH3 construct 73 (L351D, Y349E, L368E) (human) [IgG part: P01857]; assay: SDS-PAGE of protein A-purified supernatant; construct expressed alone
substance,measurement,setting,value
"IgG1 heavy chain with CH3 construct 75 (L351D, Y349D, R355D) (from UniProt P01857-1)",% IgG,[1],89.9%
same,% half molecule,[1],10.1%
same,% BB found,[2],2%
"IgG1 heavy chain with CH3 construct 71 (L351D, Y349E) (from UniProt P01857-1)",% IgG,[3],79.7%
same,% half molecule,[3],20.3%
same,% BB found,[4],0%
same,% BB found,[5],1%
IgG1 heavy chain with CH3 construct 79 (T366R) (from UniProt P01857-1),% IgG,[6],29.6%
same,% half molecule,[6],70.4%
same,% AB found,[7],38%
same,% AA found,[8],4%
"IgG1 heavy chain with CH3 construct 74 (L351D, Y349D) (from UniProt P01857-1)",% IgG,[9],88.6%
same,% half molecule,[9],11.4%
same,% BB found,[10],1%
"IgG1 heavy chain with CH3 construct 76 (L351K, L368K) (from UniProt P01857-1)",% BB found,[11],2.5%
same,% IgG,[12],56.6%
same,% half molecule,[12],43.4%
"IgG1 heavy chain with CH3 construct 70 (L351E, Y349E) (from UniProt P01857-1)",% BB found,[13],0%
same,% IgG,[14],67.8%
same,% half molecule,[14],32.2%
IgG1 heavy chain with CH3 construct 6 (T366W) (from UniProt P01857-1),% IgG,[15],27.6%
same,% half molecule,[15],72.4%
same,Full IgG found (%),[16],18%
same,Half molecules found (%),[16],82%
IgG1 heavy chain with CH3 construct 77 (L351R) (from UniProt P01857-1),% IgG,[17],100%
same,% BB found,[18],2%
same,% BB found,[19],1%
IgG1 heavy chain with CH3 construct 78 (T366E) (from UniProt P01857-1),% IgG,[20],44.4%
same,% half molecule,[20],55.6%
same,% AA found,[21],3%
same,% AB found,[18],81%
"IgG1 heavy chain with CH3 construct 7 (T366S, L368A, Y407V) (from UniProt P01857-1)",% IgG,[22],58.6%
same,% half molecule,[22],41.4%
same,Full IgG found (%),[23],42%
same,Half molecules found (%),[23],58%
"IgG1 heavy chain with CH3 construct 2 (K392D, K409D) (from UniProt P01857-1)",% IgG,[24],30.9%
same,% half molecule,[24],69.1%
same,Full IgG found (%),[25],23%
same,Half molecules found (%),[25],77%
same,Full IgG found (%),[26],77%
same,Half molecules found (%),[26],23%
"IgG1 heavy chain with CH3 construct 3 (K392D, K409D, K439D) (from UniProt P01857-1)",Full IgG found (%),[27],36%
same,Half molecules found (%),[27],64%
same,% IgG,[28],24.5%
same,% half molecule,[28],75.5%
same,Full IgG found (%),[29],24%
same,Half molecules found (%),[29],76%
IgG1 heavy chain with CH3 construct 80 (L351E) (from UniProt P01857-1),% IgG,[30],100%
same,% BB found,[7],36%
same,% BB found,[31],10%
"IgG1 heavy chain with CH3 construct 73 (L351D, Y349E, L368E) (from UniProt P01857-1)",% BB found,[32],1%
same,% IgG,[33],79.3%
same,% half molecule,[33],20.7%
